From PMC6650801

Target: EGFR–eGFP fusion protein (epidermal growth factor receptor fused to the F64L, S65T mutant of GFP) (UniProt P00533)

half recovery time T1/2 of EGFR–eGFP fluorescence in stripe FRAP on F1-10 cells, before and 2.5 min after 50 nM EGF: 6.4 s
Substance: murine EGF (epidermal growth factor) (from UniProt P01132 977-1029) (ligand)
